By EC50 is commonly meant the concentration needed to bring the measured effect to its halfway point. In general, Kd refers to the equilibrium constant for the complex coming apart. What is called koff is the rate constant with which the complex falls apart. What is called kon is the second-order rate constant of association.

Where two headings read alike, the source gives them in different places.

Experiment [1] addresses T1, Nectin4 on Nectin4 positive cancer cell lines (T47D, HT1376, HCC1500, HT-29) (human, UniProt Q96NY8 32-510).
T1 construct: whole, on cells; The cell line of each value is named under assay
T1 sequence (looked up): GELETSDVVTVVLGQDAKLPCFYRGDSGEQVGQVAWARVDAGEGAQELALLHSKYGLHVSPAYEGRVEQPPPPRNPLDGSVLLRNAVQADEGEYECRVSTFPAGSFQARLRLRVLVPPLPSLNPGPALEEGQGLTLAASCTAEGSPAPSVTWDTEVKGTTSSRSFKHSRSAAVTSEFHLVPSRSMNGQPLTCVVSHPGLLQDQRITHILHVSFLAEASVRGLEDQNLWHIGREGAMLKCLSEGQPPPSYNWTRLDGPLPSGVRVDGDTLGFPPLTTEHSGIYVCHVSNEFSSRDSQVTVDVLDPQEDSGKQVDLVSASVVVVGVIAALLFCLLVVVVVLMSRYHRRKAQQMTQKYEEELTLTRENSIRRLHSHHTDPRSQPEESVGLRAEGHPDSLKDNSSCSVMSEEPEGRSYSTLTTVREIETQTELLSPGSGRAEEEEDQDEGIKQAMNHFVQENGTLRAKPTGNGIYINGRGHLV
As to the kind of experiment: flow cytometry on T47D cells. (In general: Flow cytometry measures light scatter and fluorescence of single cells or particles in a stream.)

Experiment [2] deals with T2, CD3 on Jurkat cells (UniProt P07766 23-207, limits assumed). Description: cell-based or functional assay.
The target of experiment [3] is T3, human CD3E HIS tagged protein (human, UniProt P07766 23-126).
T3 construct: not shown: HIS tag
As to the kind of experiment: ELISA, coated human CD3E HIS tagged protein, bispecific titrated, anti-Human HRP. The protocol:
(§1) An ELISA assay was developed to determine the EC₅₀ of anti-Nectin4/CD3 bispecific antibodies. Briefly, 384 well plate was immobilized with human CD3E or Nectin4 HIS tagged protein at final concentration of 2 ug/mL in 1×PBS in total volume of 25 uL per well. The plate was incubated overnight at 4° C. followed by blocking with 80 uL of superblock per well for 1 hour. Purified anti-Nectin4/CD3 was 3-fold serial titrated from 100 nM. 25 uL was added to human Nectin4/CD3 immobilized wells and incubated for 1 hour with shaking. The CD3E or Nectin4 binding was detected by adding 25 uL of anti-Human HRP diluted at 1:10000 in 1×PBST. In between each step, the plate was washed 3 times with […] in a plate washer. The plate was then developed with 20 ul of TMB substrate for 5 mins and stopped by adding 20 ul of 2N sulfuric acid. The plate was read at OD450 nm Biotek plate reader and then plotted in Prism 8.1 software to calculate EC50.

For experiment [4], the target named is T2, CD3 on Jurkat cells. Description: flow cytometry on Jurkat cells. As for the experimental part:
(§2) Jurkat cells were plated at 100,000 cells/well in a 96-well plate with 50 μL of full media. Anti-Nectin4/CD3 antibodies were 3-fold serial titrated from 20 nM. 50 μL was added to the cells and incubated for 1 hours at room temperature with shaking. Samples were washed one time with flow buffer. […] Samples were washed once with flow buffer. Samples were stained with 100 uL Zombie Fixable Viability Dyes at 1:800 dilution per well and incubated in dark at room temperature for 30 mins. Samples were spun down at 1300 rpm for 5 minutes and washed once with 200 uL flow buffer. Reconstituted samples in 200 uL of flow buffer and read on Attune NxT cytometer. EC50 values for CD3 binding were calculated using Prism 8.1 software.

In experiment [5] the target is T1, Nectin4 on Nectin4 positive cancer cell …. Description: cell-based or functional assay.
For experiment [6] the target is unchanged. As to the kind of experiment: cell-based or functional assay. The source holds these as a separate data set.
The target of experiment [7] is T2, CD3 on Jurkat cells. As to the kind of experiment: flow cytometry on Jurkat cells. The protocol: as §2
Similar methods of above mentioned were used to measure the binding activities of anti-Nectin4/CD3/IL-2 complexes to CHO/Nectin4 and Jurkat cells, respectively.
This is another data set of the same source.

Experiment [8] concerns the target T4, human Nectin4-HIS tagged recombinant protein (human, UniProt Q96NY8 32-349).
T4 construct: also called hNectin4-HIS; Nectin4 HIS tagged protein; not shown: HIS tag
T4 sequence (looked up): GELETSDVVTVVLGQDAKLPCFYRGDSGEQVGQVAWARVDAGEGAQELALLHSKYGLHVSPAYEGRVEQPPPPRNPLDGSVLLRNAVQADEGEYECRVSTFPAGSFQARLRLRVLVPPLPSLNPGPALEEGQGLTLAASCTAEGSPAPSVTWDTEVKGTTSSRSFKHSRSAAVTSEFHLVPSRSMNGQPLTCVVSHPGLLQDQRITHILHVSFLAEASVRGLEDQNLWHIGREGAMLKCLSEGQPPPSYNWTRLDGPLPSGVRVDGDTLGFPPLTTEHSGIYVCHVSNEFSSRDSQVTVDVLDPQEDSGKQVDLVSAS
Description: SPR Biacore T200, bispecific captured on Protein A chip, hNectin4-HIS injected. The protocol: (§3) The assay was run with Biacore T200 control software version 2.0. For each cycle, 1 ug/mL of anti-hNectin4/CD3 antibody was captured for 60 seconds at flow rate of 10 ul/min on flow cell 2 in 1×HBSP buffer on Protein A sensor chip. 2-fold serial diluted CD3E-HIS or hNectin4-HIS tagged protein was injected onto both reference flow cell 1 and anti-Nectin4/CD3 bispecific captured flow cell 2 for 150 seconds at flow rate of 30 ul/mins followed by wash for 300 seconds. The flow cells were then regenerated with Glycine pH2 for 60 seconds at flow rate of 30 ul/mins. 8 concentration points from 100 nM-0 nM (CD3E-HIS) or 300 nM-0 nM (Nectin4-HIS) was assayed per anti-Nectin4 IgG in a 96 well plate. The kinetics of Anti-Nectin4/CD3 bispecific binding to CD3E and Nectin4 proteins was analyzed with Biacore T200 evaluation software version 3.0. The specific binding response unit was derived from subtraction of binding to reference flow cell 1 from antibody captured flow cell 2. Table 10 below listed the kinetics results. ND means not determined. NA means data not available.
In general terms: SPR reads the build-up and loss of mass on a sensor chip optically.

For experiment [9], the target named is T3, human CD3E HIS tagged protein. Description: SPR Biacore T200, bispecific captured on Protein A chip, CD3E-HIS injected. The protocol:
as §3

For experiment [10], the target named is T5, full-length human Nectin4 with C-terminal flag and Myc tags on CHO cells (human, UniProt Q96NY8 32-510).
T5 construct: whole, on cells; also called Nectin4/CHO; CHO/Nectin4; not shown: C-terminal flag and Myc tags of pCMV6-Entry vector
T5 sequence (looked up): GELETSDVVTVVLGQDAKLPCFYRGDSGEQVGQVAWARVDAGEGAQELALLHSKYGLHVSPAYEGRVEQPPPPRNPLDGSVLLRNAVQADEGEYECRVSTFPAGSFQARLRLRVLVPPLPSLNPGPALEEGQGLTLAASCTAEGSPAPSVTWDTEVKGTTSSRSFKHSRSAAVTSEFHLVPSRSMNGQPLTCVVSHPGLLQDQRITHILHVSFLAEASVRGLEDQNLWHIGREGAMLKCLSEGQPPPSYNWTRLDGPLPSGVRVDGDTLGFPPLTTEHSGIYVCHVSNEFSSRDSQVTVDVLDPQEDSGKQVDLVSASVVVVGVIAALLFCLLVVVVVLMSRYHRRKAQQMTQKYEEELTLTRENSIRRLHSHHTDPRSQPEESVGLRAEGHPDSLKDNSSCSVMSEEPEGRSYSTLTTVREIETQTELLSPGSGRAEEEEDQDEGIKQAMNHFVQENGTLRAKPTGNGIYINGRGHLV
As to the kind of experiment: flow cytometry on CHO/Nectin4 cells. As for the experimental part:
Nectin4/CHO Nectin4 cells were plated at 100,000 cells/well in a 96-well plate in 50 μL of full media. Cells were rested 1 hour at 37° C. Anti-Nectin4/CD3 was 3-fold serial titrated from 50 nM. 50 μL was added to the cells and incubated for 1 hours with shaking. Samples were washed one time with flow buffer. […] Samples were washed once with flow buffer. Samples were stained with 100 uL Zombie Fixable Viability Dyes (1:800 dilution) per well and incubated in dark at room temperature for 30 mins. Samples were spun down at 1200 rpm for 5 minutes and washed once with 200 uL flow buffer. Reconstituted samples in 200 uL of flow buffer and read on Attune NxT cytometer. EC₅₀ values for Nectin4 Binding were determined using Prism software.

For experiment [11], the target named is T1, Nectin4 on Nectin4 positive cancer cell …. As to the kind of experiment: flow cytometry on HT1376 cells.
For experiment [12], the target named is T4, human Nectin4-HIS tagged recombinant …. Description: ELISA, coated Nectin4 HIS tagged protein, bispecific titrated, anti-Human HRP. The protocol:
as §1

T3 sequence (P07766 23-126 limits assumed): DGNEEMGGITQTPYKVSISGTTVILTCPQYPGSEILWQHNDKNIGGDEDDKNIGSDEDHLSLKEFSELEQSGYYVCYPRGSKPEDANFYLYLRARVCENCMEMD
T2 sequence (P07766 23-207 limits assumed): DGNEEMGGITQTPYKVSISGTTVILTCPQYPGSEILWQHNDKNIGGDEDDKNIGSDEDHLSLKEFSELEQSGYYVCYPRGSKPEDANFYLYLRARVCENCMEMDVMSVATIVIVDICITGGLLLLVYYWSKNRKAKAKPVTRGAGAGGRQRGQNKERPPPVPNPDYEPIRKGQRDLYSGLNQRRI

B1: EP458/EP378/EP289 anti-Nectin4/CD3 bispecific antibody (bispecific antibody)
heavy 1: EVQLVQSGAEVKKPGASVKVSCKASGYTFTGYYMHWVRQAPGQGLEWMGRINPNSGGTNYAQKFQGRVTMTRDTSISTAYMELSGLRSDDTAVYFCARVTYNIGWYIDYWGQGTLVTVSSASTKGPSVFPLAPSSKSTSGGTAALGCLVKDYFPEPVTVSWNSGALTSGVHTFPAVLQSSGLYSLSSVVTVPSSSLGTQTYICNVNHKPSNTKVDKKVEPKSCDGGGGSGGGGSEVQLVESGGGLVQPGGSLRLSCAASGFTFSTYAMNWVRQAPGKGLEWVGRIRSKYNNYATYYADSVKGRFTISRDDSKNTLYLQMNSLRAEDTAVYYCVRHGNFGDSYVSWFAYWGQGTLVTVSSGGGGSGGGGSGGGGSGGGGSQAVVTQEPSLTVSPGGTVTLTCGSSTGAVTTSNYANWVQQKPGKSPRGLIGGTNKRAPGVPARFSGSLLGGKAALTISGAQPEDEADYYCALWYSNHWVFGGGTKLTVLEPKSCDKTHTCPPCPAPEAAGGPSVFLFPPKPKDTLMISRTPEVTCVVVDVSHEDPEVKFNWYVDGVEVHNAKTKPREEQYNSTYRVVSVLTVLHQDWLNGKEYKCKVSNKALGAPIEKTISKAKGQPREPQVCTLPPSRDELTKNQVSLSCAVKGFYPSDIAVEWESNGQPENNYKTTPPVLDSDGSFKLVSKLTVDKSRWQQGNVFSCSVMHEALHNHYTQKSLSLSPGK
heavy 2: not shown
light: QAVVTQPPSVSVAPGKTATITCGGNNIGSKGVHWYQQKPGQAPVLVIYYDTDRPSGIPERLSGSNSGNTATLTISRVEAGDEADYYCQVWDSSSDHPVFGGGTKLTVLGQPKANPTVTLFPPSSEELQANKATLVCLISDFYPGAVTVAWKADGSPVKAGVETTKPSKQSNNKYAASSYLSLTPEQWKSHRSYSCQVTHEGSTVEKTVAPTECS
notes: Bivalent for Nectin4: B09 heavy chain with sp34 scFv between CH1 and hinge, hole (EP458); B09 heavy chain knob (EP378); light chain EP289 pairs with both; also called EP458/378/289
Consider B1, for which the concentration giving a half-maximal response (EC50) in experiment [1] is 0.044 nM; in experiment [3], 0.011 nM; in experiment [4], 4.7 nM; in experiment [7], 4.37 nM; in experiment [10] it was 0.146 nM; in experiment [11] it was 0.14 nM. Besides, in experiment [12], the EC50 is 0.21 nM. Further, the “NFAT reporter EC50” value in experiment [2] was determined as 0.0004 nM. The “EC50 Values in CTL Assay Against PBMC” value in experiment [5] was 0.0014 nM. For the same molecule, the “EC50 Values in CTL Assay Against T47D Cancer Cells (PBMC)” value in experiment [6] stood at 0.0047 nM. The “EC50 Values in CTL Assay Against T47D Cancer Cells (T cell)” value in experiment [6] was determined as 0.0064 nM. Besides, the Kd in [8] was found to be 3.67 nM; in [9], 3.26 nM. The koff is 0.000472 s⁻¹ in experiment [8] and 0.000739 s⁻¹ in experiment [9]. Moreover, the kon in [8] stood at 129000 M⁻¹ s⁻¹; in experiment [9], 227000 M⁻¹ s⁻¹.

The values above are taken from patent publication US20240368275A1 (ELPIS BIOPHARMACEUTICALS, published 2024).
